Here are results for 1 substance from paper PMC5520923.

This assay concerns the target Atg16 (human (endogenous in HCT116 and H1299)) (UniProt Q676U5). In words: co-IP; lysates of HCT116/Shnon and HCT116/ShASPP1 cells (also H1299 with ASPP1 knock-down, Supplementary Figure 3B) immunoprecipitated with anti-Atg16 antibody; co-precipitated proteins detected by western blot.
Chain of UniProt Q676U5 (Q676U5 whole entry): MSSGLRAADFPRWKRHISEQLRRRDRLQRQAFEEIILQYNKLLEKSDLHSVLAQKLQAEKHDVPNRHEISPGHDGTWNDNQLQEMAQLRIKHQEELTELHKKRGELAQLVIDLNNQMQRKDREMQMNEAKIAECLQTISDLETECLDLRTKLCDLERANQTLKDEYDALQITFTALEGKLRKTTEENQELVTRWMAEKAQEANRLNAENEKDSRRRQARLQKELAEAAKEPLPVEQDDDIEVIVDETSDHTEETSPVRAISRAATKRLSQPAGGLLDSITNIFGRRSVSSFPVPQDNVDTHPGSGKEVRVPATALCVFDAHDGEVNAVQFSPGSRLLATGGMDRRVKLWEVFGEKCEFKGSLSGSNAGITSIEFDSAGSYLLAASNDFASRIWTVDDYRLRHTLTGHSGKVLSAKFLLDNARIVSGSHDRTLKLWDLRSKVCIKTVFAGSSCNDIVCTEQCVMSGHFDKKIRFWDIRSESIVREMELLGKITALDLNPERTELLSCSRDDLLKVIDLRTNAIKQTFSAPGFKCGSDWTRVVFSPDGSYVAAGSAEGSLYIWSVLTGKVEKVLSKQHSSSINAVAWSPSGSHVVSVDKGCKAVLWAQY

For “Atg5–Atg12 conjugate (from UniProt Q9H1Y0 1-275; O94817 1-140) (complex)”, the fold increase of Atg5–Atg12 in the Atg16 immunoprecipitate, ASPP1 knock-down against control cells (H1299) worked out at 2 fold and the fold increase of Atg5–Atg12 in the Atg16 immunoprecipitate, ASPP1 knock-down against control cells (HCT116) was 2 fold.
